Experimental findings from patent US20230129812A1, “COMPOSITIONS AND METHODS FOR TREATING PULMONARY HYPERTENSION” (Acceleron Pharma Inc., priority 2020, published 2023) are described below.

For assay [1], the target named is T1, activin A (Homo sapiens, UniProt P08476).
T1 sequence (P08476 311-426): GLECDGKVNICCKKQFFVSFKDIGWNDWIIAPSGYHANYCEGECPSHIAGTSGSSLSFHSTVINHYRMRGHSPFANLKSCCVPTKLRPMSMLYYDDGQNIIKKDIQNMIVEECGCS
The assay is described as follows: A-204 reporter gene assay, pGL3(CAGA)12 luciferase. The conditions noted are these: for inhibition of activin A signaling: A-204 reporter gene assay; for Activin Inhibition Activity: Table 9, cell-based A-204 assay. Set-up: key to Activin Inhibition Activity: +: Poor activity (roughly 1 × 10^−6 KI); ++: Moderate activity (roughly 1 × 10^−7 KI); +++: Good (wild-type) activity (roughly 1 × 10^−8 KI); ++++: Greater than wild-type activity. It is filed as cell-based. An excerpt: (§1) An A-204 reporter gene assay was used to evaluate the effects of ActRIIB-Fc proteins and ActRIIB variant Fc fusion polypeptides on signaling by GDF-11 and activin A. Cell line: human rhabdomyosarcoma (derived from muscle). Reporter vector: pGL3(CAGA)12 (described in Dennler et al, 1998, EMBO 17: 3091-3100). The CAGA12 motif is present in TGF-beta responsive genes (e.g., PAI-1 gene), so this vector is of general use for factors signaling through SMADs.
(§2) Day 1: Split A-204 cells into 48-well plate.
(§3) Day 2: A-204 cells transfected with 10 ug pGL3(CAGA)12 or pGL3(CAGA)12(10 ug)+pRLCMV (1 pg) and Fugene.
(§4) Day 3: Add factors (diluted into medium+0.1% BSA). Inhibitors need to be preincubated with factors for 1 hr before adding to cells. Six hrs later, cells were rinsed with PBS and lysed.
(§5) This is followed by a luciferase assay.
(§6) Activity of ActRIIB-Fc proteins and ActRIIB variant Fc fusion polypeptides was tested in a cell-based assay as described above. Some variants were tested in different C-terminal truncation constructs. As discussed above, truncations of five or fifteen amino acids caused reduction in activity. […]

In assay [2] the target is T2, GDF11 (Homo sapiens, UniProt O95390).
T2 sequence (O95390 299-407): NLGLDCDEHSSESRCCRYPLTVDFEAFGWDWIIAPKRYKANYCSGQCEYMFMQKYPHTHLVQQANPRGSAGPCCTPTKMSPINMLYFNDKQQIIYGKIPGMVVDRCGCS
The assay is described as follows: A-204 reporter gene assay, pGL3(CAGA)12 luciferase. The assay is classed as cell-based. Set-up: key to GDF11 Inhibition Activity: +: Poor activity (roughly 1 × 10^−6 KI); ++: Moderate activity (roughly 1 × 10^−7 KI); +++: Good (wild-type) activity (roughly 1 × 10^−8 KI); ++++: Greater than wild-type activity. The conditions noted are these: for inhibition of GDF11 signaling: A-204 reporter gene assay; for GDF11 Inhibition Activity: Table 9, cell-based A-204 assay.
Description: as §1, §2, §3, §4, §5, §6
On the technique in general: In a reporter assay the amount or activity of a reporter protein is the signal.

In assay [3] the target is T1, activin A. The assay is described as follows: Biacore assay, ActRIIB-Fc captured with anti-hFc antibody, ligand injected (Example 8). It is filed as binding. The conditions noted are these: for activin A binding: cell-free Biacore assay, Example 8. The procedure: (§7) Binding of certain ActRIIB-Fc proteins and ActRIIB variant Fc fusion polypeptides to ligands was tested in a Biacore™ assay.
(§8) The ActRIIB-Fc variants or wild-type protein were captured onto the system using an anti-hFc antibody. Ligands were injected and flowed over the captured receptor proteins.

Another assay has as its target T3, GDF8 (Homo sapiens, UniProt O14793).
T3 sequence (O14793 267-375): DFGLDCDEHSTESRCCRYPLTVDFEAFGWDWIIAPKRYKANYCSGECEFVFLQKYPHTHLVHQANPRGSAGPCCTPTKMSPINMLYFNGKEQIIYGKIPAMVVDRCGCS
Described as above. The assay is classed as binding. The settings on record: for Koff: GDF8, Table 10. The procedure: as §7, §8

In assay [4] the target is T2, GDF11. The assay is described as above. The assay is classed as binding. The settings on record: for Koff: GDF11, Table 10; for GDF11 binding: cell-free Biacore assay, Example 8. The procedure:
as §7, §8
A general note: Surface plasmon resonance follows binding to a sensor surface in real time, without labels.

B1: ActRIIB(L79E 20-134)-hFc: alternative form with a glutamate rather than an aspartate at position 79 (protein)
chain: GRGEAETRECIYYNANWELERTNQSGLERCEGEQDKRLHCYASWRNSSGTIELVKKGCWEDDFNCYDRQECVATEENPQVYFCCCEGNFCNERFTHLPEAGGPEVTYEPPPTAPTGGGTHTCPPCPAPELLGGPSVFLFPPKPKDTLMISRTPEVTCVVVDVSHEDPEVKFNWYVDGVEVHNAKTKPREEQYNSTYRVVSVLTVLHQDWLNGKEYKCKVSNKALPVPIEKTISKAKGQPREPQVYTLPPSREEMTKNQVSLTCLVKGFYPSDIAVEWESNGQPENNYKTTPPVLDSDGSFFLYSKLTVDKSRWQQGNVFSCSVMHEALHNHYTQKSLSLSPGK
Take B1: in the assay with activin A [1], the “inhibition of activin A signaling” value is reported as “substantial loss of activin A inhibition” and the “Activin Inhibition Activity” value was “+ (Poor activity (roughly 1 × 10^−6 KI))”. Moreover, in the assay with GDF11 [2], the “inhibition of GDF11 signaling” value was “almost wild-type inhibition of GDF11” and the “GDF11 Inhibition Activity” value is “+++ (Good (wild-type) activity (roughly 1 × 10^−8 KI))”. In the assay with activin A [3] (Activin A, Table 10), the “KD (M)” value is given as “Low binding”. For the same molecule, the “activin A binding” value in the assay with activin A [3] is “markedly decreased (non-quantifiable) binding to activin A”. For the same molecule, the “Koff” value with GDF8 amounted to 0.0009 s⁻¹. Moreover, the “myostatin (GDF8) binding” value with GDF8 (cell-free Biacore assay, Example 8) was “retains myostatin and GDF11 binding”. In the assay with GDF11 [4], the “Koff” value worked out at 0.000274 s⁻¹; the “GDF11 binding” value was “retains myostatin and GDF11 binding”.

B2: ActRIIB(P129S, P130R 20-134)-hFc: ActRIIB-Fc variant with P129S and P130R substitutions, residues 20-134 (protein)
chain: GRGEAETRECIYYNANWELERTNQSGLERCEGEQDKRLHCYASWRNSSGTIELVKKGCWLDDFNCYDRQECVATEENPQVYFCCCEGNFCNERFTHLPEAGGPEVTYEPSRTAPTGGGTHTCPPCPAPELLGGPSVFLFPPKPKDTLMISRTPEVTCVVVDVSHEDPEVKFNWYVDGVEVHNAKTKPREEQYNSTYRVVSVLTVLHQDWLNGKEYKCKVSNKALPVPIEKTISKAKGQPREPQVYTLPPSREEMTKNQVSLTCLVKGFYPSDIAVEWESNGQPENNYKTTPPVLDSDGSFFLYSKLTVDKSRWQQGNVFSCSVMHEALHNHYTQKSLSLSPGK
In the case of B2, the “Koff” value in the assay with activin A [3] (Activin A, Table 10) was determined as 0.000417 s⁻¹; with GDF8, 0.00018 s⁻¹.

B3: R64 P129S P130A 20-134: ActRIIB-Fc variation R64 P129S P130A, amino acids 20-134 of SEQ ID NO:1 (protein)
chain: GRGEAETRECIYYNANWELERTNQSGLERCEGEQDKRLHCYASWRNSSGTIELVKKGCWLDDFNCYDRQECVATEENPQVYFCCCEGNFCNERFTHLPEAGGPEVTYEPSATAPTGGGTHTCPPCPAPELLGGPSVFLFPPKPKDTLMISRTPEVTCVVVDVSHEDPEVKFNWYVDGVEVHNAKTKPREEQYNSTYRVVSVLTVLHQDWLNGKEYKCKVSNKALPVPIEKTISKAKGQPREPQVYTLPPSREEMTKNQVSLTCLVKGFYPSDIAVEWESNGQPENNYKTTPPVLDSDGSFFLYSKLTVDKSRWQQGNVFSCSVMHEALHNHYTQKSLSLSPGK
In the case of B3, the “Activin Inhibition Activity” value with activin A [1] is given as “+++ (Good (wild-type) activity (roughly 1 × 10^−8 KI))”. In the assay with GDF11 [2], the “GDF11 Inhibition Activity” value was “+++ (Good (wild-type) activity (roughly 1 × 10^−8 KI))”.

B4: ActRIIB(A24N 20-134)-hFc: ActRIIB-Fc variant with A24N substitution, residues 20-134 (protein)
chain: GRGENETRECIYYNANWELERTNQSGLERCEGEQDKRLHCYASWRNSSGTIELVKKGCWLDDFNCYDRQECVATEENPQVYFCCCEGNFCNERFTHLPEAGGPEVTYEPPPTAPTGGGTHTCPPCPAPELLGGPSVFLFPPKPKDTLMISRTPEVTCVVVDVSHEDPEVKFNWYVDGVEVHNAKTKPREEQYNSTYRVVSVLTVLHQDWLNGKEYKCKVSNKALPVPIEKTISKAKGQPREPQVYTLPPSREEMTKNQVSLTCLVKGFYPSDIAVEWESNGQPENNYKTTPPVLDSDGSFFLYSKLTVDKSRWQQGNVFSCSVMHEALHNHYTQKSLSLSPGK
For the molecule B4, in the assay with activin A [1], the “inhibition of activin A signaling” value is listed as “equivalent to the wild-type molecule” and the “Activin Inhibition Activity” value was “+++ (Good (wild-type) activity (roughly 1 × 10^−8 KI))”. In the assay with GDF11 [2], the “inhibition of GDF11 signaling” value is on record as “equivalent to the wild-type molecule” and the “GDF11 Inhibition Activity” value is on record as “+++ (Good (wild-type) activity (roughly 1 × 10^−8 KI))”. The “Koff” value in the assay with activin A [3] (Activin A, Table 10) came out at 0.000346 s⁻¹. Besides, in the assay with activin A [3], the “activin A binding” value is recorded as “retains ligand-binding activity that is similar to that of the ActRIIB(20-134)-hFc molecule”. Also, in the assay with GDF11 [4], the “Koff” value was 6.35e-05 s⁻¹ and the “GDF11 binding” value was “retains ligand-binding activity that is similar to that of the ActRIIB(20-134)-hFc molecule”.

B5: ActRIIB(K74A 20-134)-hFc: ActRIIB-Fc variant with K74A substitution, residues 20-134 (protein)
chain: GRGEAETRECIYYNANWELERTNQSGLERCEGEQDKRLHCYASWRNSSGTIELVAKGCWLDDFNCYDRQECVATEENPQVYFCCCEGNFCNERFTHLPEAGGPEVTYEPPPTAPTGGGTHTCPPCPAPELLGGPSVFLFPPKPKDTLMISRTPEVTCVVVDVSHEDPEVKFNWYVDGVEVHNAKTKPREEQYNSTYRVVSVLTVLHQDWLNGKEYKCKVSNKALPVPIEKTISKAKGQPREPQVYTLPPSREEMTKNQVSLTCLVKGFYPSDIAVEWESNGQPENNYKTTPPVLDSDGSFFLYSKLTVDKSRWQQGNVFSCSVMHEALHNHYTQKSLSLSPGK
For the molecule B5, the “Activin Inhibition Activity” value with activin A [1] is “++++”. Further, the “GDF11 Inhibition Activity” value with GDF11 [2] is “++++”. Besides, the “Koff” value with GDF8 is 2.03e-05 s⁻¹.

B6: R64N 20-134: ActRIIB-Fc variation R64N, amino acids 20-134 of SEQ ID NO:1 (protein)
chain: GRGEAETRECIYYNANWELERTNQSGLERCEGEQDKRLHCYASWNNSSGTIELVKKGCWLDDFNCYDRQECVATEENPQVYFCCCEGNFCNERFTHLPEAGGPEVTYEPPPTAPT
modifications: Fc fusion partner
On to B6, for which the “Activin Inhibition Activity” value with activin A [1] is “+ (Poor activity (roughly 1 × 10^−6 KI))”. Further, in the assay with GDF11 [2], the “GDF11 Inhibition Activity” value is recorded as “+ (Poor activity (roughly 1 × 10^−6 KI))”.

B7: ActRIIB(R64K 20-129)-hFc: ActRIIB-Fc variant with R64K substitution, residues 20-129 (protein)
chain: GRGEAETRECIYYNANWELERTNQSGLERCEGEQDKRLHCYASWKNSSGTIELVKKGCWLDDFNCYDRQECVATEENPQVYFCCCEGNFCNERFTHLPEAGGPEVTYEPPGGGTHTCPPCPAPELLGGPSVFLFPPKPKDTLMISRTPEVTCVVVDVSHEDPEVKFNWYVDGVEVHNAKTKPREEQYNSTYRVVSVLTVLHQDWLNGKEYKCKVSNKALPVPIEKTISKAKGQPREPQVYTLPPSREEMTKNQVSLTCLVKGFYPSDIAVEWESNGQPENNYKTTPPVLDSDGSFFLYSKLTVDKSRWQQGNVFSCSVMHEALHNHYTQKSLSLSPGK
For B7, the “Activin Inhibition Activity” value in the assay with activin A [1] is recorded as “+++ (Good (wild-type) activity (roughly 1 × 10^−8 KI))”. Moreover, the “GDF11 Inhibition Activity” value with GDF11 [2] is “+++ (Good (wild-type) activity (roughly 1 × 10^−8 KI))”. Moreover, the “Koff” value with activin A [3] (Activin A, Table 10) is 0.000628 s⁻¹; in the assay with GDF8 it was 0.000209 s⁻¹.
